In patent US20110287963A1:

Key:
[1] = biological target: GCN4 leucine zipper (wild-type) fused to the α fragment of β-lactamase (E. coli (plasmid pBR322)) (UniProt P03069); test: cell-based or functional assay
[2] = biological target: GCN4-PP, double proline mutant of the GCN4 leucine zipper, fused to the α fragment of β-lactamase (E. coli (plasmid pBR322)) (UniProt P03069); test: cell-based or functional assay

“scFv-GCN4 fused to the ω fragment of β-lactamase (pDMB-P1-ωBLA construct)” was tested, and the MBC (minimum bacteriocidal concentration) on ampicillin, fold over the α-Jun negative control [1] was 2 fold and the MBC (minimum bacteriocidal concentration) on ampicillin, fold over the α-Jun negative control [2] was 16 fold.
